± gives the standard error. Fewer inactive variants are shown than the library holds.
B1: glmS ribozyme (parent)
chain: AUAAAAGCGCCAGAACUACAGAAAUGUAGUUGACGAGGAGGAGGUUUAUCGAAUUUUCGGCGGAUGCCUCCAAA

Experiments:
Conditions in all cases: with glucosamine-6-phosphate
glucosamine-6-phosphate [1] = variants of: B1; assay: self-cleavage kobs at 40 uM GlcN6P; higher = faster cleavage; RNA array
Procedure, shortened: (§1)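 Sequenced MiSeq chips were the platform: E. coli RNA polymerase transcribed barcoded ribozyme variants on them in situ, and a hybridised Cy3 probe tracked these at 37 °C. After glucosamine-6-phosphate (40 μM to 10 mM) in HEPES/KCl/Mg(OAc)2 buffer was flowed in, tiles were imaged over ~14 h. Signals normalised to baseline and to non-cleaving reference variants were reduced to per-tile medians and fit to one- or two-exponential decays to obtain kobs. kcat and KM were derived through weighted Michaelis–Menten fits across concentrations.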

glucosamine-6-phosphate [2] = variants of: B1; assay: self-cleavage kobs at 10000 uM GlcN6P; higher = faster cleavage; RNA array
Procedure, shortened: as §1

glucosamine-6-phosphate [3] = variants of: B1; assay: self-cleavage kobs at 160 uM GlcN6P; higher = faster cleavage; RNA array
Procedure, shortened: as §1

glucosamine-6-phosphate [4] = variants of: B1; assay: self-cleavage kobs at 640 uM GlcN6P; higher = faster cleavage; RNA array
Procedure, shortened: as §1

glucosamine-6-phosphate [5] = variants of: B1; assay: self-cleavage kobs at 2500 uM GlcN6P; higher = faster cleavage; RNA array
Procedure, shortened: as §1

Variant	self-cleavage kobs at 40 uM GlcN6P (glucosamine-6-phosphate [1]) [s⁻¹]	self-cleavage kobs at 10000 uM GlcN6P (glucosamine-6-phosphate [2]) [s⁻¹]	self-cleavage kobs at 160 uM GlcN6P (glucosamine-6-phosphate [3]) [s⁻¹]	self-cleavage kobs at 640 uM GlcN6P (glucosamine-6-phosphate [4]) [s⁻¹]	self-cleavage kobs at 2500 uM GlcN6P (glucosamine-6-phosphate [5]) [s⁻¹]
A48C C67U C71A	< 1e-05	< 1e-05			
U49G C61U	< 1e-05		< 1e-05		
U47G G66A C70U	0.000121 ± 3e-05	0.00591 ± 0.0017			
U49G U55G U65G	< 1e-05	6.42e-05 ± 1.5e-05			
A48C G60U	< 1e-05	< 1e-05	< 1e-05	< 1e-05	< 1e-05
U47A A53C	0.000173 ± 2.9e-05	0.00663 ± 0.0016	0.000506 ± 7.8e-05	0.00103 ± 0.00018	0.00465 ± 0.001
U47A A53G	0.000816 ± 9.9e-05	0.04 ± 0.011	0.00166 ± 0.0003	0.00725 ± 0.0013	0.0106 ± 0.0028
U47A C70U	0.000803 ± 0.00012	0.00993 ± 0.0023	0.00118 ± 0.00023	0.0018 ± 0.00029	0.00221 ± 0.00048
C50A G62U G63A	< 1e-05	< 1e-05	< 1e-05	< 1e-05	< 1e-05
U47A U57G C58U C70U	< 1e-05				
A48U C50G C67U	0.000126 ± 4.4e-05				
A48U C61U	< 1e-05			< 1e-05	
A48U U49A	< 1e-05		< 1e-05	< 1e-05	
U47C C61U	< 1e-05	< 1e-05	< 1e-05	< 1e-05	< 1e-05
A48G A64U	< 1e-05	< 1e-05	< 1e-05	< 1e-05	
U49C G63A C67G	< 1e-05	< 1e-05			
U46G U49C	< 1e-05	< 1e-05	< 1e-05	< 1e-05	< 1e-05
U49A C67A U69C	< 1e-05				
C50G G63A C68A U69C	0.000106 ± 2.3e-05	0.000147 ± 2.8e-05			
C50G G62U	0.00036 ± 0.00014	3.35e-05 ± 1e-05	0.000115 ± 1.8e-05	0.000122 ± 2.7e-05	
U47C G60U	< 1e-05		< 1e-05	< 1e-05	< 1e-05
C50A G51C	< 1e-05	< 1e-05			
U47G C71U	0.000224 ± 2.2e-05	0.00702 ± 0.00088	0.000648 ± 8.2e-05	0.001 ± 0.00012	0.00216 ± 0.00038

Variant	self-cleavage kobs at 40 uM GlcN6P (glucosamine-6-phosphate [1]) [s⁻¹]	self-cleavage kobs at 10000 uM GlcN6P (glucosamine-6-phosphate [2]) [s⁻¹]	self-cleavage kobs at 160 uM GlcN6P (glucosamine-6-phosphate [3]) [s⁻¹]	self-cleavage kobs at 640 uM GlcN6P (glucosamine-6-phosphate [4]) [s⁻¹]	self-cleavage kobs at 2500 uM GlcN6P (glucosamine-6-phosphate [5]) [s⁻¹]
U49G A53U U56A C67A C70A	4.31e-05 ± 1.9e-05				0.000146 ± 2.4e-05
A48C G51U C58G	< 1e-05				
A48C G66C	< 1e-05	3.05e-05 ± 1.2e-05	< 1e-05		
U46G C70U	0.000256 ± 2.3e-05	0.00705 ± 0.00083	0.000556 ± 8.8e-05	0.00125 ± 0.0002	0.00235 ± 0.00055
C50G C61U A64G	0.000244 ± 8.5e-05	4.62e-05 ± 1.7e-05	8.89e-05 ± 3.2e-05	0.000192 ± 8.3e-05	
A48U G62U C68G	< 1e-05				
U49C G59C	< 1e-05	< 1e-05			< 1e-05
C50A G63C	< 1e-05	< 1e-05	< 1e-05		
A48U A64C C67U	< 1e-05	< 1e-05		< 1e-05	
A48C A52U C70A	< 1e-05				
U46C G62U	< 1e-05	< 1e-05	< 1e-05		
U49C C61A C70U	< 1e-05	< 1e-05			
U47G C58U C70A	7.14e-05 ± 3e-05	4.44e-05 ± 2.1e-05			9.31e-05 ± 2e-05
U49C A52C	< 1e-05	< 1e-05	< 1e-05		< 1e-05
C50G G63C C71U	7.02e-05 ± 2.9e-05				
U46A C50G A53U C70G	0.000147 ± 6.3e-05	0.000126 ± 3.8e-05			
U47C G66C C67U	< 1e-05				
A48G G63U	< 1e-05	< 1e-05			< 1e-05
A48U G60C C61U	< 1e-05			< 1e-05	
C50G G59U C67G	0.000108 ± 1.9e-05	5.5e-05 ± 1.5e-05			0.000245 ± 5.2e-05
U47A G60A	< 1e-05		< 1e-05		< 1e-05
C50G C58A C67A	7.83e-05 ± 1.2e-05	9.18e-05 ± 1.4e-05			

— the supplement of paper PMC7125110
